Laboratory results published in PMC4466390, “Canonical and Noncanonical Sites Determine NPT2A Binding Selectivity to NHERF1 PDZ1” (PLoS ONE, 2015).
Changes are numbered by the printed parent chain. Names may count otherwise. Where no end group is shown, it is not given here.

T1: NHERF1 PDZ1 H27N (1–120) (human, UniProt O14745 1-120, H27N)
T1 construct: the methods describe the mutants in PDZ1 (11-120), so 1-120 may be a misprint of 11-120; also called His27Asn; source: E. coli BL21 (DE3), purified (Ni-NTA-agarose)
T1 sequence (looked up): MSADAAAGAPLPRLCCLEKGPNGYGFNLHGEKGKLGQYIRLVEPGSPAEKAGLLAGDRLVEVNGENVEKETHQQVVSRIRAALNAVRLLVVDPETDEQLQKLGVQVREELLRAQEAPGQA

T2: NHERF1 PDZ1 (1–120) (human, UniProt O14745 1-120)
T2 construct: the methods describe PDZ1 (11-120) and PDZ1 (1-140) but no 1-120 construct, so 1-120 may be a misprint of 11-120; Host and purification are the general statement of the methods; also called WT PDZ1; source: E. coli BL21 (DE3), purified (Ni-NTA-agarose)
T2 sequence (looked up): T1 sequence (looked up) with N27H

T3: NHERF1 PDZ1 H27N/E43D (1–120) (human, UniProt O14745 1-120, H27N | E43D)
T3 construct: The double mutant's plasmid is not described in the methods; also called His27Asn/Glu43Asp PDZ1; source: E. coli BL21 (DE3), purified (Ni-NTA-agarose)
T3 sequence (looked up): T1 sequence (looked up) with E43D

T4: NHERF1 PDZ1 E43D (1–120) (human, UniProt O14745 1-120, E43D)
T4 construct: the methods describe the mutants in PDZ1 (11-120), so 1-120 may be a misprint of 11-120; also called Glu43Asp; source: E. coli BL21 (DE3), purified (Ni-NTA-agarose)
T4 sequence (looked up): T1 sequence (looked up) with N27H, E43D

T5: NHERF1 PDZ1 (11–120) (human, UniProt O14745 11-120)
T5 construct: Na+/H+ Exchanger Regulatory Factor-1 (NHERF1, EBP50), human, PDZ1 construct, residues 11-120; also called WT PDZ1 (11–120); source: E. coli BL21 (DE3), purified (Ni-NTA-agarose)
T5 sequence (looked up): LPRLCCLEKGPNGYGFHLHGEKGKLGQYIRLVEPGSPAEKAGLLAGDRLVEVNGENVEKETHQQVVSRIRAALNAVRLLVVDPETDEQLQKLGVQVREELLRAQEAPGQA

T6: NHERF1 PDZ1 (1–140) (human, UniProt O14745 1-140)
T6 construct: Na+/H+ Exchanger Regulatory Factor-1 (NHERF1, EBP50), human, PDZ1 construct, residues 1-140; Plasmid pET16-N1P1 provided by D. F. Mierke; also called WT PDZ1 (1–140); pET16-N1P1; source: E. coli BL21 (DE3), purified (Ni-NTA-agarose)
T6 sequence (looked up): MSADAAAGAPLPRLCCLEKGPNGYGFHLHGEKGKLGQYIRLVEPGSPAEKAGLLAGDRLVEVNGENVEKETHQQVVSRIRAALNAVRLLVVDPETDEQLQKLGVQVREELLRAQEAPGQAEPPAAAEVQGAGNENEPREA

B1: NPT2A peptide (ligand titrated in ITC) (peptide)
peptide: ELPPATPSPRLALPAHHNATRL
notes: type II sodium-dependent phosphate co-transporter (NPT2A, SLC34A1), 22-residue carboxy-terminal fragment; Kept apart from m1 for that reason; also called ligand NPT2A; source: synthetic peptide
B2: rhodamine-labeled 22-residue carboxy-terminal NPT2A peptide (peptide)
peptide: {5(6)‑carboxytetramethylrhodamine}-ELPPATPSPRLALPAHHNATRL
notes: type II sodium-dependent phosphate co-transporter (NPT2A, SLC34A1), 22-residue carboxy-terminal fragment; also called labeled NPT2A peptide; source: synthetic peptide (solid phase, Fmoc; HPLC purified)
B3: NHERF1 PDZ2 D183E (domain or fragment, human, UniProt O14745 133-300, looked up)
chain: NENEPREADKSHPEQRELRPRLCTMKKGPSGYGFNLHSDKSKPGQFIRSVEPDSPAEASGLRAQDRIVEVNGVCMEGKQHGDVVSAIRAGGDETKLLVVDRETDEFFKKCRVIPSQEHLNGPLPVPFTNGEIQKENSREALAEAALESPRPALVRSASSDTSEELNSQ
notes: Na+/H+ Exchanger Regulatory Factor-1 (NHERF1, EBP50), human, PDZ2 construct, residues 133-300 (mutation introduced into pET16-N1P2), Asp183Glu; also called Asp183Glu PDZ2; single PDZ2 mutant; source: E. coli BL21 (DE3), purified (Ni-NTA-agarose)
B4: NHERF1 PDZ2 N167H/D183E (domain or fragment, human, UniProt O14745 133-300, looked up)
chain: B3 chain with N35H
notes: Na+/H+ Exchanger Regulatory Factor-1 (NHERF1, EBP50), human, PDZ2 construct, residues 133-300 (mutations introduced into pET16-N1P2), Asn167His and Asp183Glu; also called Asn167His/Asp183Glu PDZ2; double PDZ2 mutant; source: E. coli BL21 (DE3), purified (Ni-NTA-agarose)

Key:
Conditions in all cases: both partners purified
NHERF1 PDZ1 H27N (1–120) = target: T1, NHERF1 PDZ1 H27N (1–120); assay: ITC; 25°C; 10 mM Hepes (pH 7.5), 10 mM NaCl, 0.5 mM EDTA, 0.5 mM beta-mercaptoethanol; 25 uM PDZ protein in the cell, NPT2A (200–250 uM) titrated in 19 injections of 2 ul
NHERF1 PDZ1 (1–120) = target: T2, NHERF1 PDZ1 (1–120); assay: as above
[1] = target: T3, NHERF1 PDZ1 H27N/E43D (1–120); assay: as above
NHERF1 PDZ1 E43D (1–120) = target: T4, NHERF1 PDZ1 E43D (1–120); assay: as above
NHERF1 PDZ1 (11–120) = target: T5, NHERF1 PDZ1 (11–120); assay: fluorescence polarisation; solution phase direct binding, PDZ construct varied against 0.5 uM or 1 uM rhodamine-labeled NPT2A peptide; FP buffer (25 mM NaH2PO4, 10 mM NaCl, pH 7.4, 1 mM DTT, 0.1 mg/ml bovine IgG, 0.5 mM Thesit); 25°C; anisotropy fitted to a 1:1 complex
NHERF1 PDZ1 (1–140) [2] = target: T6, NHERF1 PDZ1 (1–140); assay: as above
NHERF1 PDZ1 (1–140) [3] = target: T6, NHERF1 PDZ1 (1–140); assay: fluorescence polarisation; as a1 but at pH 5.5; 0.5 uM labeled NPT2A peptide, WT PDZ1 (1–140)
NHERF1 PDZ1 (1–140) [4] = target: T6, NHERF1 PDZ1 (1–140); assay: fluorescence polarisation; as a1 but at pH 6.0; 0.5 uM labeled NPT2A peptide, WT PDZ1 (1–140)
[5] = target: B2; assay: fluorescence polarisation; solution phase direct binding, PDZ construct varied against 0.5 uM or 1 uM rhodamine-labeled NPT2A peptide; FP buffer (25 mM NaH2PO4, 10 mM NaCl, pH 7.4, 1 mM DTT, 0.1 mg/ml bovine IgG, 0.5 mM Thesit); 25°C; anisotropy fitted to a 1:1 complex

Binder: B1
Kd (NHERF1 PDZ1 H27N (1–120)): 5.3 ± 0.5 µM | dH (NHERF1 PDZ1 H27N (1–120)): -31.4 ± 2.93 kJ/mol | stoichiometry N (NHERF1 PDZ1 H27N (1–120)): 0.61 | Kd (NHERF1 PDZ1 (1–120)): 3.1 ± 0.3 µM | dH (NHERF1 PDZ1 (1–120)): -34.3 ± 3.35 kJ/mol | stoichiometry N (NHERF1 PDZ1 (1–120)): 0.92 | Kd [1]: 17.9 ± 0.9 µM | dH [1]: -24.3 ± 2.51 kJ/mol | stoichiometry N [1]: 0.6 | Kd (NHERF1 PDZ1 E43D (1–120)): 10.4 ± 0.8 µM | dH (NHERF1 PDZ1 E43D (1–120)): -12.6 ± 1.26 kJ/mol | stoichiometry N (NHERF1 PDZ1 E43D (1–120)): 0.6

Binder: B2
Kd (NHERF1 PDZ1 (11–120)): 5.5 ± 0.6 µM | Kd (NHERF1 PDZ1 (1–140) [2]): 1.7 ± 0.2 µM | Kd (NHERF1 PDZ1 (1–140) [3]): 16.1 ± 3.3 µM | Kd (NHERF1 PDZ1 (1–140) [4]): 8 ± 1.8 µM

Binder: B3
EC50 [5]: 20 ± 10 µM

Binder: B4
EC50 [5]: 11.7 ± 2 µM
